Target: Gallus gallus TRPV4 isolated ankyrin repeat domain (residues 135-382) (Gallus gallus, UniProt A0A1D5PXA5 135-382)
Experiment: cross-linking

Gallus gallus TRPV4 isolated ankyrin repeat domain (residues 135-382), sequence (A0A1D5PXA5 135-382): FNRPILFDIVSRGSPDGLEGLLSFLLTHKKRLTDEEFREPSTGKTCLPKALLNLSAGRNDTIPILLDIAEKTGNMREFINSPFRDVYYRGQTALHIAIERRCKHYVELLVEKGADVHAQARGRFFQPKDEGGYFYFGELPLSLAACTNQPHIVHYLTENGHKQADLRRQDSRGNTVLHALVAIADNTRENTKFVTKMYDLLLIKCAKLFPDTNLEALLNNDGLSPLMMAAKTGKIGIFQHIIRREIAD

binding result: binds
B1: Gallus gallus TRPV4 isolated intrinsically disordered region (residues 2-134) (domain or fragment, UniProt A0A1D5PXA5 2-134, looked up)
chain: ADPEDPRDAGDVLGDDSFPLSSLANLFEVEDTPSPAEPSRGPPGAVDGKQNLRMKFHGAFRKGPPKPMELLESTIYESSVVPAPKKAPMDSLFDYGTYRQHPSENKRWRRRVVEKPVAGTKGPAPNPPPILKV
